# Experimental data from article PMC8397897.
# Target: DENV capsid protein (DENVC) (Dengue virus 2 strain 16681, UniProt O09234 1-100)
# Assay: nephelometry (condensate formation); NaCl < 150 mM; diminished above; nonlabeled 25 mer
# Conditions: protein: recombinant; chain copies: 2
binder,measurement,value
"GGACAGGAAUUAAUAGUAGCUGUCC (ssDNA, printed with U although named ssDNA; chemistry ambiguous) [ssDNASel25 (Sel25 DNA, 25 mer)]",binding result,binds
